Experimental data reported in IntAct's records for PubMed 29039417.

B1: Protein PTHB1 (Homo sapiens), Q3SYG4 (parent)
chain: MSLFKARDWWSTILGDKEEFDQGCLCLANVDNSGNGQDKIIVGSFMGYLRIFSPHPAKTGDGAQAEDLLLEVDLRDPVLQVEVGKFVSGTEMLHLAVLHSRKLCVYSVSGTLGNVEHGNQCQMKLMYEHNLQRTACNMTYGSFGGVKGRDLICIQSMDGMLMVFEQESYAFGRFLPGFLLPGPLAYSSRTDSFLTVSSCQQVESYKYQVLAFATDADKRQETEQQKLGSGKRLVVDWTLNIGEQALDICIVSFNQSASSVFVLGERNFFCLKDNGQIRFMKKLDWSPSCFLPYCSVSEGTINTLIGNHNNMLHIYQDVTLKWATQLPHIPVAVRVGCLHDLKGVIVTLSDDGHLQCSYLGTDPSLFQAPNVQSRELNYDELDVEMKELQKIIKDVNKSQGVWPMTEREDDLNVSVVVSPNFDSVSQATDVEVGTDLVPSVTVKVTLQNRVILQKAKLSVYVQPPLELTCDQFTFEFMTPDLTRTVSFSVYLKRSYTPSELEGNAVVSYSRPTDRNPDGIPRVIQCKFRLPLKLICLPGQPSKTASHKITIDTNKSPVSLLSLFPGFASQSDDDQVNVMGFHFLGGARITVLASKTSQRYRIQSEQFEDLWLITNELILRLQEYFEKQGVKDFACSFSGSIPLQEYFELIDHHFELRINGEKLEELLSERAVQFRAIQRRLLARFKDKTPAPLQHLDTLLDGTYKQVIALADAVEENQGNLFQSFTRLKSATHLVILLIALWQKLSADQVAILEAAFLPLQEDTQELGWEETVDAAISHLLKTCLSKSSKEQALNLNSQLNIPKDTSQLKKHITLLCDRLSKGGRLCLSTDAAAPQTMVMPGGCTTIPESDLEERSVEQDSTELFTNHRHLTAETPRPEVSPLQGVSE
partner: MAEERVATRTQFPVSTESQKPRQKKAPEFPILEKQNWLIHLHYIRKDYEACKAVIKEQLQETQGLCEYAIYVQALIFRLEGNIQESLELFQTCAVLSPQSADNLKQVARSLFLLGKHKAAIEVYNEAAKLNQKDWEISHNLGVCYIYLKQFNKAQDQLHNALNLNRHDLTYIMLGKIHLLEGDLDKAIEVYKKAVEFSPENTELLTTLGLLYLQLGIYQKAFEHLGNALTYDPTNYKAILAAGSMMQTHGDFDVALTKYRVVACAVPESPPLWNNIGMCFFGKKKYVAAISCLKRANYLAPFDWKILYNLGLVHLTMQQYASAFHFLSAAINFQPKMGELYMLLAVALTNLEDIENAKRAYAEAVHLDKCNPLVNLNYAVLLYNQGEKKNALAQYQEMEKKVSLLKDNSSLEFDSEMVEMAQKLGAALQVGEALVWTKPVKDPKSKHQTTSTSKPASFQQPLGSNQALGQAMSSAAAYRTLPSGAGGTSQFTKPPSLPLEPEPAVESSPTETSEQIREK

Variants of: B1
Settings: with bbs4_human BBS4, Q96RK4

Variant | effect of a mutation on the interaction
V461A | with no effect
L752E | with no effect
I588E | with no effect
Q791L | disrupting interaction strength
Q883A | with no effect
I548A | with no effect
S425E | with no effect
T725E | with no effect
L819K | with no effect
C469A | with no effect
S439K | with no effect
V442E | with no effect
N515E | with no effect
N515K | with no effect
V506E | disrupting interaction strength
A544E | with no effect
L500E | with no effect
L467A | with no effect
S558K | with no effect
P881E | with no effect
G538A | with no effect
V749A | with no effect
V749E | with no effect

Variant | effect of a mutation on the interaction
Q621K | with no effect
V450E | with no effect
S486R | disrupting interaction strength
F563K | with no effect
D747N | disrupting interaction strength
L793E | with no effect
L793K | with no effect
S729E | with no effect
R678A | with no effect
D696A | with no effect
L465K | disrupting interaction strength
S635A | with no effect
R493K | with no effect
R493A | with no effect
V671E | with no effect
R510K | with no effect
C525A | with no effect
P840K | with no effect
N794A | with no effect
F653E | with no effect
D513K | with no effect
R619E | with no effect
G884A | with no effect

Variant | effect of a mutation on the interaction
E466A | with no effect
E647G | disrupting interaction strength
S593K | with no effect
P556A | with no effect
P438K | with no effect
K532E | with no effect
M837E | with no effect
S855E | with no effect
N719E | with no effect
D470A | with no effect
H546E | with no effect
Q858E | with no effect
T589K | with no effect
T589A | disrupting interaction strength
A792K | with no effect
S414A | with no effect
S637K | with no effect
R818A | with no effect
L666K | with no effect
T512A | with no effect
V734A | with no effect
H581A | with no effect
Q835K | with no effect

Variant | effect of a mutation on the interaction
Q807A | with no effect
I612A | with no effect
R726A | with no effect
F582E | with no effect
L457K | with no effect
L757A | with no effect
Q748A | disrupting interaction strength
L680A | with no effect
T445E | with no effect
A774K | with no effect
V713E | with no effect
V505E | with no effect
V505A | with no effect
P419K | with no effect
D700K | with no effect
F472A | with no effect
L452S | disrupting interaction strength
F632K | with no effect
R483A | with no effect
D631A | with no effect
